Where a chain is given by its changes, count along the chain named.
T1: FZD10 CRD (Homo sapiens, UniProt Q9ULW2)
T1 construct: 30-156; GPI anchor signal (C); expressed in transfected cells; host or cells: CHO cells, lentiviral pLenti-puro
T1 sequence (Q9ULW2 30-156): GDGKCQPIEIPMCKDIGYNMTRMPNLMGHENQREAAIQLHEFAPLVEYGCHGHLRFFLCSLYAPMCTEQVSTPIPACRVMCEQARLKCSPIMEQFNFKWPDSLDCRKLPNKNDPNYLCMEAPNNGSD

T2: FZD6 CRD (Homo sapiens, UniProt O60353)
T2 construct: S20-P146; GPI anchor signal (C); expressed in transfected cells; host or cells: CHO cells, lentiviral pLenti-puro
T2 sequence (O60353 20-146): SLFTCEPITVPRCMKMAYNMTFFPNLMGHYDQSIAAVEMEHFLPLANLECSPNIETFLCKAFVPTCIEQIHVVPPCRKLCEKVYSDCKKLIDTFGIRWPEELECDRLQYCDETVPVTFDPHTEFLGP

T3: FZD4 CRD (Homo sapiens, UniProt Q9ULV1)
T3 construct: E42-V167; GPI anchor signal (C); expressed in transfected cells; host or cells: CHO cells, lentiviral pLenti-puro
T3 sequence (Q9ULV1 42-167): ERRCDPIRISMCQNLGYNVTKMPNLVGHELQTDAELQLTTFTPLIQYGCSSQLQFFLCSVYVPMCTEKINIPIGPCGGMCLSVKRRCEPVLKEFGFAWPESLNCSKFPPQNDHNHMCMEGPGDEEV

B1: Fab-2899: anti-FZD5 Fab with antibody variable region Fv-2899; CDR SEQ ID NOs: 35, 36, 38, 77, 114, 153 (antibody, V domains shown)
VH: EVQLVESGGGLVQPGGSLRLSCAASGFNLYYYYMHWVRQAPGKGLEWVASIYPSSGSTSYADSVKGRFTISADTSKNTAYLQMNSLRAEDTAVYYCARGALDYWGQGTLVTVSS
VL: DIQMTQSPSSLSASVGDRVTITCRASQSVSSAVAWYQQKPGKAPKLLIYSASSLYSGVPSRFSGSRSGTDFTLTISSLQPEDFATYYCQQWYSSYGLITFGQGTKVEIK
B2: Fab-2922: anti-FZD5 Fab with antibody variable region Fv-2922; CDR SEQ ID NOs: 35, 36, 61, 99, 137, 171 (antibody, V domains shown)
VH: EVQLVESGGGLVQPGGSLRLSCAASGFNIYSSYMHWVRQAPGKGLEWVASISPYSGYTSYADSVKGRFTISADTSKNTAYLQMNSLRAEDTAVYYCARTVRGSKKPYFSGWAMDYWGQGTLVTVSS
VL: B1 VL with W91S, Y92F, S93V, S94Y, Y95P, G96Y
B3: Fab-2902: anti-FZD5 Fab with antibody variable region Fv-2902; CDR SEQ ID NOs: 35, 36, 41, 80, 117, 153 (antibody, V domains shown)
VH: B1 VH with L29I, Y30S, M34I, Y52S, P53S, G56S
VL: B1 VL with S93A, S94F, Y95G, G96A
B4: Fab-2906: anti-FZD5 Fab with antibody variable region Fv-2906; CDR SEQ ID NOs: 35, 36, 45, 84, 121, 158 (antibody, V domains shown)
VH: B2 VH with I29F, Y30S, Y33S, M34I, S50Y, P53S, Y54S, S55Y, S59Y
VL: DIQMTQSPSSLSASVGDRVTITCRASQSVSSAVAWYQQKPGKAPKLLIYSASSLYSGVPSRFSGSRSGTDFTLTISSLQPEDFATYYCQQWSWGFLITFGQGTKVEIK

Key:
FZD7 CRD = molecular target: T4, FZD7 CRD (Homo sapiens, UniProt O75084); test: Immunofluorescence of anti-FZD5 Fab binding to CHO cells overexpressing Frizzled CRD; parameters: key: −: no binding; +: very weak binder; ++: weak binder; +++: good binder; ++++: very good binder
T4 construct: D45-S169; GPI anchor signal (C); expressed in transfected cells; host or cells: CHO cells, lentiviral pLenti-puro
How it was run: (§1)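 Specificity of anti-FZD5 Fabs was tested on CHO cells displaying membrane-anchored Frizzled CRDs (myc-tagged, GPI-linked), one family member per line. Detection was by immunofluorescence.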

FZD10 CRD = molecular target: T1, FZD10 CRD; test: as above; parameters: key: −: no binding; +: very weak binder; ++: weak binder; +++: good binder; ++++: very good binder
How it was run: as §1

FZD6 CRD = molecular target: T2, FZD6 CRD; test: as above; parameters: key: −: no binding; +: very weak binder; ++: weak binder; +++: good binder; ++++: very good binder
How it was run: as §1

RWP1 cells [1] = test: Effect of anti-FZD5 Fabs on proliferation of pancreatic cancer cell lines (percent growth inhibition); format: cell-based, human; conditions: Fab 2 μg/ml
ASPC-1 cells [2] = test: as above; format: cell-based, human; conditions: Fab 2 μg/ml
RWP1 cells [3] = test: as above; format: cell-based, human; conditions: Fab 10 μg/ml
Procedure: (§2) The effect of presently disclosed anti-FZD5 Fabs on proliferation of RNF43 loss-of-function mutant pancreatic cancer cell lines HPAFII, PATU8988S and ASPC-1; and on pancreatic cancer cell line RWP1, was tested at […] and 10 μg/ml.

HPAFII cells = test: as above; format: cell-based, human; conditions: for percent growth inhibition, HPAFII 2 μg/ml: Fab 2 μg/ml; for percent growth inhibition, HPAFII 10 μg/ml: Fab 10 μg/ml
Procedure: as §2

PATU8988S cells [4] = test: as above; format: cell-based, human; conditions: Fab 10 μg/ml
Procedure: as §2

ASPC-1 cells [5] = test: as above; format: cell-based, human; conditions: Fab 10 μg/ml
Procedure: as §2

PATU8988S cells [6] = test: as above; format: cell-based, human; conditions: Fab 2 μg/ml
FZD4 CRD = molecular target: T3, FZD4 CRD; test: Flow cytometry of anti-FZD5 Fab binding to CHO cells overexpressing Frizzled CRD
Procedure: Plasmids: pLCKO lentiviral vector used for knockout (TKO) library construction and expression of individual gRNAs was constructed as described previously (Hart et al., 2015). Briefly, single guide RNA (sgRNA) scaffold was amplified from px330 (Addgene 42230) and cloned into pLKO.TRC005 lentiviral vector (Broad Institute, Cambridge, Mass.) using AgeI/EcoRI restriction sites. BfuAI sites were added at the 5′ end of the sgRNA scaffold for cloning the TKO library or individual gRNA target sequences. Lenti Cas9-2A-BsdR vector used to generate Cas9 stable expression cell lines was constructed as described previously (Hart et al., 2015). Briefly, lentiCRISPR pXPR_001 (Addgene 49535) was modified through removal of the sgRNA scaffold region through NdeI/EcoRI digest and blunt ends generation using Large Klenow Fragment (NEB). 2A-puro was replaced with 2A-BsdR by PCR using the NheI/MluI sites. Each of the 10 human Frizzled cysteine rich domains (CRDs) were cloned into the lentiviral expression plasmid pLenti-puro in the following cassette: FZD_CRD-MYC-GPI.
Flow cytometry: Primary staining of cells was performed by treatment with 200 nM Frizzled profiler Fab. Alexa Fluor 488 AffiniPure F(ab′)2 was used as the secondary antibody (Jackson ImmunoResearch #109-546-097). c-Myc (9E10) IgG1 (primary antibody, Santa Cruz, lot #D0306) and Alexa Fluor 488 IgG (secondary antibody, Life technologies, lot #1458649) were used as controls. Dead cells were excluded by staining with Fixable Viability Dye eFluor 660 (eBioscience, catalogue number 65-0864). All reagents were used as per manufacturer's instructions. Flow cytometry was performed on a BD FACSCanto II flow cytometer (BD Biosciences), and data were analyzed with FlowJo software (FlowJo, LLC).
To confirm that the FZD5-WNT7B circuit is not driven simply by expression and rule out the possibility of a disconnect between RNA and protein levels for the Wnt receptors in HPAF-II cells, a panel of recombinant Fabs were generated, alternatively referred to herein as ‘Frizzled profiler’, that can detect and discriminate all but one of the ten Frizzled receptors. […] To characterize the binding specificity of these Fabs on cells, a panel of 10 CHO cell lines was generated, each expressing the CRD domain of a different myc-tagged Frizzled family member anchored at the plasma membrane through a GPI anchor (CHO-myc-FZDGPI). Despite the high sequence identity between Frizzled family members (FIG. 7A, FIG. 7B), selective Fabs were identified for FZD4, FZD5, FZD6 and FZD10 as assessed by immunofluorescence and flow cytometry (FIG. 7D and FIG. 8). […] The FZD8 CRD is most homologous to that of FZD5 (FIG. 7B). These Fabs can be used to discriminate expression of FZD1, FZD2, FZD4, FZD5, FZD6, FZD7, FZD8, FZD9 and FZD10 (FIG. 7D and FIG. 8). The ‘Frizzled profiler’ therefore consists of 10 different Fabs that can be used to discriminate expression of 9 different Frizzled family members. The Frizzled profiler was then used to confirm that HPAF-II cells express FZD1, FZD5, FZD6 and possibly FZD8 (FIG. 7E).
The binding of anti-FZD5 Fabs to cell surface-expressed Frizzled protein was further determined for each member of the Frizzled family via flow cytometry and immunofluorescence analysis of a panel of 10 CHO cell lines, each ectopically over-expressing the extracellular cysteine-rich domain (CRD) of a different Frizzled protein family member.

| Molecule | Immunofluorescence binding, Frizzled CRD overexpressed on CHO cells: FZD7 (FZD7 CRD) | Immunofluorescence binding, Frizzled CRD overexpressed on CHO cells: FZD10 (FZD10 CRD) | Immunofluorescence binding, Frizzled CRD overexpressed on CHO cells: FZD6 (FZD6 CRD) | percent growth inhibition, RWP1 2 μg/ml (RWP1 cells [1]) [%] | percent growth inhibition, ASPC-1 2 μg/ml (ASPC-1 cells [2]) [%] | percent growth inhibition, RWP1 10 μg/ml (RWP1 cells [3]) [%] | percent growth inhibition, HPAFII 2 μg/ml (HPAFII cells) [%] | percent growth inhibition, HPAFII 10 μg/ml (HPAFII cells) [%] | percent growth inhibition, PATU8988s 10 μg/ml (PATU8988S cells [4]) [%] | percent growth inhibition, ASPC-1 10 μg/ml (ASPC-1 cells [5]) [%] | percent growth inhibition, PATU8988s 2 μg/ml (PATU8988S cells [6]) [%] | Median fluorescence, Frizzled CRD overexpressed on CHO cells: FZD4 (FZD4 CRD) |
| --- | --- | --- | --- | --- | --- | --- | --- | --- | --- | --- | --- | --- |
| B1 | +++ | − | − | 37.95 | 37.97 | 47.83 | 36.18 | 55.71 | −3.10 | 33.63 | 4.94 | 11.86 |
| B2 | − | − | − | −6.96 | 14.47 | 7.59 | 8.28 | 8.14 | −24.14 | 27.72 | 9.16 | 12.75 |
| B3 | + | − | − | 26.56 | 10.84 | 31.22 | 25.42 | 21.81 | −32.61 | 17.39 | −15.75 | 10.27 |
| B4 | + | +++ | − | 1.19 | 20.56 | 5.47 | 15.24 | 14.98 | −30.04 | 35.20 | −17.42 | 12.3 |
